# IntAct's records for PubMed 18045938
# B1: Envelope glycoprotein B (Human herpesvirus 8), F5HB81 (parent)
# chain: MTPRSRLATLGTVILLVCFCAGAAHSRGDTFQTSSSPTPPGSSSKAPTKPGEEASGPKSVDFYQFRVCSASITGELFRFNLEQTCPDTKDKYHQEGILLVYKKNIVPHIFKVRRYRKIATSVTVYRGLTESAITNKYELPRPVPLYEISHMDSTYQCFSSMKVNVNGVENTFTDRDDVNTTVFLQPVEGLTDNIQRYFSQPVIYAEPGWFPGIYRVRTTVNCEIVDMIARSAEPYNYFVTSLGDTVEVSPFCYNESSCSTTPSNKNGLSVQVVLNHTVVTYSDRGTSPTPQNRIFVETGAYTLSWASESKTTAVCPLALWKTFPRSIQTTHEDSFHFVANEITATFTAPLTPVANFTDTYSCLTSDINTTLNASKAKLASTHVPNGTVQYFHTTGGLYLVWQPMSAINLTHAQGDSGNPTSSPPPSASPMTTSASRRKRRSASTAAAGGGGSTDNLSYTQLQFAYDKLRDGINQVLEELSRAWCREQVRDNLMWYELSKINPTSVMTAIYGRPVSAKFVGDAISVTECINVDQSSVNIHKSLRTNSKDVCYARPLVTFKFLNSSNLFTGQLGARNEIILTNNQVETCKDTCEHYFITRNETLVYKDYAYLRTINTTDISTLNTFIALNLSFIQNIDFKAIELYSSAEKRLASSVFDLETMFREYNYYTHRLAGLREDLDNTIDMNKERFVRDLSEIVADLGGIGKTVVNVASSVVTLCGSLVTGFINFIKHPLGGMLMIIIVIAIILIIFMLSRRTNTIAQAPVKMIYPDVDRRAPPSGGAPTREEIKNILLGMHQLQQEERQKADDLKKSTPSVFQRTANGLRQRLRGYKPLTQSLDISPETGE
# Variants of: B1
# Details: with itb3_human ITGB3, P05106
# itb3_human ITGB3, P05106, sequence (P05106 whole entry): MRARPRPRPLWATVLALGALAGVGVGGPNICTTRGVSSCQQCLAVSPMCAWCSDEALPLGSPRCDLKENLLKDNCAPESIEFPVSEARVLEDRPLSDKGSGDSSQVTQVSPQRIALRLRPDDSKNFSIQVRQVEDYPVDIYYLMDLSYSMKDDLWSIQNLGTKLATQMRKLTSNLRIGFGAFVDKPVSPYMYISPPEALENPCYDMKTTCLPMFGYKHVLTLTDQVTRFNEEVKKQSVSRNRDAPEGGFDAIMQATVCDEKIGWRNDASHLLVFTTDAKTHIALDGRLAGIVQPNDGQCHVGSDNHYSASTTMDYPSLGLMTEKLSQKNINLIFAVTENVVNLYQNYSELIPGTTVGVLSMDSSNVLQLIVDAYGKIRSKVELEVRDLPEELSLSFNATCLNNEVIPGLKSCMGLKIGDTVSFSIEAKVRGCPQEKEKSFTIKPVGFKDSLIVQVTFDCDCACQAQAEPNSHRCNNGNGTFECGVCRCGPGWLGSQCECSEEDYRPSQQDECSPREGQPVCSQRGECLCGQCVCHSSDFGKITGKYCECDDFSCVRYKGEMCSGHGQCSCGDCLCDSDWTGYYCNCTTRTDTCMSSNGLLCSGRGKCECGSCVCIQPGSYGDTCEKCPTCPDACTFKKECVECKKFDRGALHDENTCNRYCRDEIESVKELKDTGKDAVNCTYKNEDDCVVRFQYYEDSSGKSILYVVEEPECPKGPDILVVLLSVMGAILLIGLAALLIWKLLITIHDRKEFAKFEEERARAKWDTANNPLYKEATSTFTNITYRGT
row,Variant,effect of a mutation on the interaction
1,D29E,disrupting interaction
